From paper PMC5872055, “A Low-Cost Inkjet-Printed Aptamer-Based Electrochemical Biosensor for the Selective Detection of Lysozyme”

Target: lysozyme (chicken (egg white), UniProt P00698 19-147)
Test: electrochemical impedance spectroscopy (Rct decrease); 0-20 ug/mL lysozyme, 15 min; sensor LOD 90 ng/mL (not a Kd); EIS: proteins in 50 mM phosphate buffer (PBS) pH 7.4, 15 min incubation, rinse with PBS and DI water, then ferro-/ferricyanide read-out; SWV: 10 mM PBS; temperature not stated
Settings: protein: commercial

Chain of lysozyme (P00698 19-147): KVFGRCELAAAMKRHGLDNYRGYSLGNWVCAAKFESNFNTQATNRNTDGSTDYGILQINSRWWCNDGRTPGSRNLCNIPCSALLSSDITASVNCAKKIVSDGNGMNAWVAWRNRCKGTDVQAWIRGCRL

ATCAGGGCTAAAGAGTGCAGAGTTACTTAG (ssDNA) [anti-lysozyme aptamer (30-mer)]
binding result: binds
